Laboratory results taken from patent US20220380463A1 (Adimab, published 2022).
Where a chain is given by its changes, count along the chain named.

B1: SAD10318_P02_A05 (ADI-48595) (antibody, V domains shown)
VH: QVQLVQSGTEVKKPGASVKVSCKASGFNIKDYYMHWVRQAPGQRLEWMGWIDLENANTIYDAKFQGRVTITRDTSASTAYMELSSLRSEDTAVYYCARDAYHRYFYDHWGQGTLVTVSS
VL: DIVMTQSPDSLAVSLGERATINCKSSQSLLNSHTGKNYLAWYQQKPGQPPKLLIYWASTRESGVPDRFSGSGSGTDFTLTISSLQAEDVAVYYCKQSYSRRTFGGGTKVEIK
notes: IgG; also called Ab178
B2: SAD10318_P04_D11 (ADI-48616) (antibody, V domains shown)
VH: B1 VH with T9A, H102G, R103H, H108V
VL: B1 VL with S32A, H33R, K36H, Y38H, K95H, R100H
notes: IgG; also called Ab219
B3: SAD10318_P04_C11 (ADI-48615) (antibody, V domains shown)
VH: B1 VH with T9A, A100H, Y101H, H102G, H108V
VL: B1 VL with S32A, H33R, K36H, Y38H
notes: IgG; also called Ab218
B4: SAD10318_P04_D10 (ADI-48613) (antibody, V domains shown)
VH: B1 VH with T9A, H102G, R103H, F105H, H108V
VL: B1 VL with N31H, S32A, H33R, Y38H
notes: IgG; also called Ab211
B5: SAD10318_P02_H04 (ADI-48594) (antibody, V domains shown)
VH: B1 VH with T9A
VL: B1 VL with N31H, S32A, H33R, K36H
notes: IgG; also called Ab169
B6: SAD10318_P03_A09 (ADI-48608) (antibody, V domains shown)
VH: B1 VH with T9A, A100H, H102G
VL: B1 VL with S32A, H33R, K36H, Y38H, S99H, R100H
notes: IgG; also called Ab203
B7: SAD10318_P03_E07 (ADI-48601) (antibody, V domains shown)
VH: B1 VH with T9A, A100H, H108V
VL: B1 VL with S32A, K95H, Y98H
notes: IgG; also called Ab191
B8: SAD10318_P03_H08 (ADI-48607) (antibody, V domains shown)
VH: B1 VH with T9A, R103H, H108V
VL: B1 VL with S32A, H33R, K36H, Y38H, K95H, Y98H
notes: IgG; also called Ab202
B9: SAD10318_P03_E08 (ADI-48605) (antibody, V domains shown)
VH: B1 VH with T9A, A100H, H108V
VL: B1 VL with S32A, Y38H, S99H, T102H
notes: IgG; also called Ab199
B10: SAD10318_P03_D09 (ADI-48610) (antibody, V domains shown)
VH: B1 VH with T9A, Y33H, Y101H, H108V
VL: B1 VL with S32A, Y38H, Y98H, R100H
notes: IgG; also called Ab206
B11: SAD10318_P04_H11 (ADI-48617) (antibody, V domains shown)
VH: B1 VH with T9A, A100H, H102G
VL: B1 VL with S7Y, S32A, K36H, K95H, R100H
notes: IgG; also called Ab223
B12: SAD10318_P03_F07 (ADI-48602) (antibody, V domains shown)
VH: B1 VH with T9A, Y101H, H102G, F105H, H108V
VL: B1 VL with S10C, S32A, H33R, K36H, Y98H, R100H
notes: IgG; also called Ab192
B13: SAD10318_P02_H05 (ADI-48599) (antibody, V domains shown)
VH: B1 VH with T9A, H102G, R103H, Y104H, H108V
VL: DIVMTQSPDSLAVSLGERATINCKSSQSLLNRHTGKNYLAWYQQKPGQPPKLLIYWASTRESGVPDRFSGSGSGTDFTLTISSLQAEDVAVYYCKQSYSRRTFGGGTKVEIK
notes: IgG; also called Ab185
B14: SAD10318_P02_D05 (ADI-48598) (antibody, V domains shown)
VH: B1 VH with T9A, A100H, H102G, R103H, H108V
VL: B1 VL with S32A, H33R, Y38H, S99H, R100H
notes: IgG; also called Ab181
B15: SAD10320_P01_A02 (ADI-48646) (antibody, V domains shown)
VH: B1 VH with T9A, H102P, R103H, H108V
VL: B1 VL with S32A, H33R, S99H, R100E
notes: IgG; also called Ab53
B16: SAD10318_P04_A12 (ADI-48618) (antibody, V domains shown)
VH: B1 VH with T9A, Y104H, H108V
VL: B1 VL with N31H, S32P, H33R, S99H, R100H
notes: IgG; also called Ab224
B17: SAD10318_P04_B11 (ADI-48614) (antibody, V domains shown)
VH: B1 VH with T9A, A100H, H108V
VL: B1 VL with S32A, Y38H
notes: IgG; also called Ab217
B18: SAD10318_P03_F08 (ADI-48606) (antibody, V domains shown)
VH: B1 VH with T9A, A100H, H108V
VL: B1 VL with S32A, Y38H, T102H
notes: IgG; also called Ab200
B19: SAD10318_P02_C04 (ADI-48592) (antibody, V domains shown)
VH: B1 VH with T9A, K13E, Y101H, H108V
VL: B1 VL with S32A, K36H
notes: IgG; also called Ab125
B20: SAD10319_P01_D01 (ADI-48622) (antibody, V domains shown)
VH: QVQLVQSGAEVKKPGASVKVSCKASGYTFKSYDMHWVRQAPGQRLEWMGWIDAGTGNTKYSQKFQGRVTITRDTSASTAYMELSSLRSEDTAVYYCARDAYGRYFYDVWGQGTLVTVSS
VL: B1 VL with S32A, H33R
notes: IgG; also called Ab231
B21: SAD10318_P03_D08 (ADI-48604) (antibody, V domains shown)
VH: B1 VH with T9A, S75A, A100H
VL: B1 VL with S32A, Y38H
notes: IgG; also called Ab198
B22: SAD10318_P04_C10 (ADI-48612) (antibody, V domains shown)
VH: B1 VH with T9A, H102G, F105H, Y106H, H108V
VL: B1 VL with S32A, H33R, K36H, Y38H, K95H, S99H
notes: IgG; also called Ab210
B23: SAD10318_P02_G04 (ADI-48593) (antibody, V domains shown)
VH: B1 VH with T9A, H102G, R103H, F105H, H108V
VL: B1 VL with N31H, S32A, H33R, S99H, R100H
notes: IgG; also called Ab158
B24: SAD10318_P03_C08 (ADI-48603) (antibody, V domains shown)
VH: B1 VH with T9A, A100H, H102G, R103H, H108V
VL: B1 VL with N31H, S32A, H33R, Y38H, Y98H, R100H
notes: IgG; also called Ab197
B25: SAD10318_P02_G06 (ADI-48600) (antibody, V domains shown)
VH: B1 VH with T9A, R98H, H102G, R103H, H108V
VL: B1 VL with N31H, S32T, H33R
notes: IgG; also called Ab189
B26: SAD10318_P03_C09 (ADI-48609) (antibody, V domains shown)
VH: B1 VH with T9A
VL: B1 VL with S32A, Y38H, S99H, R100H
notes: IgG; also called Ab205
B27: SAD10318_P02_B05 (ADI-48596) (antibody, V domains shown)
VH: B1 VH with T9A, H102G, Y104H
VL: B1 VL with S32A
notes: IgG; also called Ab179
B28: SAD10320_P01_B01 (ADI-48643) (antibody, V domains shown)
VH: B1 VH with T9A, H102G, R103H, Y104I, H108V
VL: B1 VL with S32A, H33R, S99V, R100H
notes: IgG; also called Ab46

molecular target: T1, human CD3 on CD3+ Jurkat cells (human, UniProt P07766 23-207); experiment: flow cytometry on CD3+ Jurkat cells, ratio of MFI at pH 6.0 to pH 7.4
T1 construct: whole, on cells; Native CD3 complex on cells; the other CD3 chains are not specified for this assay; also called Human CD3+ Jurkat
Procedure: (§1) Specificity of the anti-CD3 antibodies for human CD3+ Jurkat cells compared to CHO-S cells at pH 6.0 and 7.4 was determined using a FACS cell binding assay. Briefly, CD3+ human Jurkat cells and CHO-S cells were thawed and washed with cold PBSF buffer, pH 7.4 (PBS+0.1% BSA, pH 7.4). About 200,000 cells were aliquoted per well of a 96-well plate and pelleted by centrifugation (5 minutes at 500×g). The cells were washed with either PBSF pH 7.4 or PBSF pH 6.0 (PBS+0.1% BSA, pH 6.0), and then resuspended in 100 ul in either PBSF pH 7.4 or PBSF pH 6.0 with IgG antibody produced in yeast (100 nM). The mixture (cells+antibody) was incubated for 20 minutes on ice, then washed twice with either PBSF pH 7.4 or PBSF pH 6.0. Cells were resuspended in 50 ul of propidium iodide (1:500 dilution) and anti-human IgG-RPE (1:100 dilution) prepared in either PBSF pH 7.4 or PBSF pH 6.0, then incubated for 20 minutes on ice in the dark before cells were washed twice with either PBSF pH 7.4 or PBSF pH 6.0. Binding was analyzed on FACS Canto II.
(§2) Cell binding assays. CD3+ human Jurkat cells (ATCC) and CHO-S cells (Invitrogen/ThermoFisher) were thawed and washed with cold PBSF buffer, pH 7.4 (PBS+0.1% BSA, pH 7.4). About 200,000 cells were aliquoted per well of a 96-well plate (FACS Assay Plate VWR BD 353263) and pelleted by centrifugation (5 minutes at 500×g). The cells were washed with either PBSF pH 7.4 or PBSF pH 6.0 (PBS+0.1% BSA, pH 6.0), and then resuspended in 100 ul in either PBSF pH 7.4 or PBSF pH 6.0 with IgG antibody (100 nM) produced in yeast as described above. The mixture (cells+antibody) was incubated for 20 minutes on ice, then washed twice with either PBSF pH 7.4 or PBSF pH 6.0. Cells were resuspended in 50 ul of propidium iodide (Roche; 1:500 dilution) and anti-human IgG-RPE (Southern Biotech; 1:100 dilution) prepared in either PBSF pH 7.4 or PBSF pH 6.0, then incubated for 20 minutes on ice in the dark before cells were washed twice with either PBSF pH 7.4 or PBSF pH 6.0. Binding was analyzed on FACS Canto II.

T1 sequence (P07766 23-207): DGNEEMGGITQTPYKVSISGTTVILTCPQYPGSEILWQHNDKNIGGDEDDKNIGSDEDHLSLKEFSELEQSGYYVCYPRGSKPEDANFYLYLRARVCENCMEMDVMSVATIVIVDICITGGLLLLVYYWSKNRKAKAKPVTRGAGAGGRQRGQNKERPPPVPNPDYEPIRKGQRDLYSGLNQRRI

Row | MFI pH 6.0/MFI pH 7.4 | Binder
1 | 1.2 | B1
2 | 0.9 | B2
3 | 1.1 | B3
4 | 0.8 | B4
5 | 3.2 | B5
6 | 4.5 | B6
7 | 20.7 | B7
8 | 1.7 | B8
9 | 5.2 | B9
10 | 5 | B10
11 | 3.1 | B11
12 | 5.9 | B12
13 | 2.3 | B13
14 | 8.6 | B14
15 | 24.1 | B15
16 | 4.2 | B16
17 | 2.6 | B17
18 | 1.2 | B18
19 | 1.9 | B19
20 | 5.4 | B20
21 | 4.7 | B21
22 | 0.8 | B22
23 | 39.4 | B23
24 | 3.5 | B24
25 | 2.2 | B25
26 | 9.3 | B26
27 | 0.6 | B27
28 | 15.9 | B28

molecular target: T1, human CD3 on CD3+ Jurkat cells; experiment: flow cytometry, 100 nM IgG on CD3+ Jurkat cells, pH 6.0
Procedure: as §1, §2

Row | MFI pH 6.0 [MFI] | Binder
29 | 5980 | B1
30 | 36 | B2
31 | 40 | B3
32 | 52 | B4
33 | 4260 | B5
34 | 203 | B6
35 | 1080 | B7
36 | 86 | B8
37 | 282 | B9
38 | 361 | B10
39 | 166 | B11
40 | 202 | B12
41 | 1320 | B13
42 | 279 | B14
43 | 1270 | B15
44 | 170 | B16
45 | 148 | B17
46 | 89 | B18
47 | 5810 | B19
48 | 3060 | B20
49 | 199 | B21
50 | 42 | B22
51 | 3780 | B23
52 | 177 | B24
53 | 2900 | B25
54 | 346 | B26
55 | 500 | B27
56 | 4200 | B28

molecular target: T1, human CD3 on CD3+ Jurkat cells; experiment: flow cytometry, 100 nM IgG on CD3+ Jurkat cells, pH 7.4
Procedure: as §1, §2

Row | MFI pH 7.4 [MFI] | Binder
57 | 4960 | B1
58 | 41 | B2
59 | 37 | B3
60 | 66 | B4
61 | 1320 | B5
62 | 45 | B6
63 | 52 | B7
64 | 52 | B8
65 | 55 | B9
66 | 72 | B10
67 | 53 | B11
68 | 34 | B12
69 | 583 | B13
70 | 33 | B14
71 | 53 | B15
72 | 41 | B16
73 | 58 | B17
74 | 76 | B18
75 | 2990 | B19
76 | 567 | B20
77 | 43 | B21
78 | 50 | B22
79 | 96 | B23
80 | 51 | B24
81 | 1340 | B25
82 | 37 | B26
83 | 828 | B27
84 | 265 | B28
